Reference: IntAct's records for PubMed 22085930

B1: Peroxisome assembly protein 22 (Saccharomyces cerevisiae), P39718 (parent)
chain: MPPPSRSRINKTRTLGIVGTAIAVLVTSYYIYQKVTSAKEDNGARPPEGDSVKENKKARKSKCIIMSKSIQGLPIKWEEYAADEVVLLVPTSHTDGSMKQAIGDAFRKTKNEHKIIYCDSMDGLWSCVRRLGKFQCILNSRDFTSSGGSDAAVVPEDIGRFVKFVVDSDVEDVLIDTLCN
partner: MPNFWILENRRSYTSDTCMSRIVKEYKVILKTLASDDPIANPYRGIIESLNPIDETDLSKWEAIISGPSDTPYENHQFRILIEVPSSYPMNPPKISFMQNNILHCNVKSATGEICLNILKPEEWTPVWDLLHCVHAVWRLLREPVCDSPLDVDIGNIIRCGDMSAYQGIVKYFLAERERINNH
B2: Ubiquitin-conjugating enzyme E2-21 kDa (Saccharomyces cerevisiae), P29340 (parent)
chain: B1 partner
partner: B1 chain

Variants of: B1
Conditions: with ubcx_yeast PEX4, P29340

Row | effect of a mutation on the interaction | Variant
1 | decreasing interaction | MPPPSRSRINKTRTLGIVGTAIAVLVTSYYIYQKVTSAKEDNGARPPEGDSVKENKKARKSKCIIMSKSIQGLPIKWEEYAADEVVLLVPTSHTDGSMKQAIGDAFRKTKNEHKIIYCDSMDGLWSCVRRLGAFQCILNSRDFTSSGGSDAAVVPEDIGRFVKFVVDSDVEDVLIDTLCN [K133A]

Variants of: B2
Conditions: with pex22_yeast PEX22, P39718

Row | effect of a mutation on the interaction | Variant
2 | disrupting interaction | MPNFWILENRRSYTSDTCMSRIVKEYKVILKTLASDDPIANPYRGIIESLNPIDETDLSKWEAIISGPSDTPYENHQFRILIEVPSSYPMNPPKISFMQNNILHCNVKSATGEICLNILKPEEWTPVWDLLHCVHAVWRLLREPVCDSPLDVDIGNIIRCGDMSAYQGIVKAFLAERERINNH [Y172A]

Variants of: B2
Conditions: with pex22_yeast PEX22, P39718
Remark: another data set of the same source

Row | effect of a mutation on the interaction | Variant
3 | decreasing interaction | MPNFWILENRRSYTSDTCMSRIVKEYKVILKTLASDDPIANPYRGIIESLNPIDETDLSKWEAIISGPSDTPYENHQFRILIEVPSSYPMNPPKISFMQNNILHCNVKSATGEICLNILKPEEWTPVWDLLHCVHAVWRLLREPVCDSPLDVDIGNIIRCGDMSAYQGIVKFFLAERERINNH [Y172F]
